The text below walks through data of article PMC9992269 (Molecular cell, 2023).

Assay [1] has as its target T1, Npl4 (wild type, purified without Ufd1) (UniProt P33755 1-580).
T1 sequence (looked up): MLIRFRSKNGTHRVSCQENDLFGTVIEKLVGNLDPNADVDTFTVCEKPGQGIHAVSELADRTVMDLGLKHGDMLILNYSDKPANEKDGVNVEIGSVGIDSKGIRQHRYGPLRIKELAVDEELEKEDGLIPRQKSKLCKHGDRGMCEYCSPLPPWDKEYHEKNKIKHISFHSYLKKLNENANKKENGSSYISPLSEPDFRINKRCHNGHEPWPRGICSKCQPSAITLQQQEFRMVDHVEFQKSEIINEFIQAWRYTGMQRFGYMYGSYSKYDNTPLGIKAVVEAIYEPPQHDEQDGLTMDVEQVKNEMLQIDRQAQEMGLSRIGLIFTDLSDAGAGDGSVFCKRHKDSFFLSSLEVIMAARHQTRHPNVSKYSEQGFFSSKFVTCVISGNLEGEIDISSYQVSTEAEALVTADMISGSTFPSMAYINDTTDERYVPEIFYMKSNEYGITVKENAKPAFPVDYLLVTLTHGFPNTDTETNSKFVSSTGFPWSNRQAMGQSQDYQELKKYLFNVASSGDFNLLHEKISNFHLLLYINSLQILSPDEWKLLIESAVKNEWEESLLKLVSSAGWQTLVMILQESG
The assay is described as follows: SEC. For orientation: In gel filtration, larger molecules generally elute earlier.

Assay [2] has as its target T2, Ufd1^L55R/Npl4 (UniProt P53044 1-361; P33755 1-580, L55R).
T2 sequence (looked up) 1: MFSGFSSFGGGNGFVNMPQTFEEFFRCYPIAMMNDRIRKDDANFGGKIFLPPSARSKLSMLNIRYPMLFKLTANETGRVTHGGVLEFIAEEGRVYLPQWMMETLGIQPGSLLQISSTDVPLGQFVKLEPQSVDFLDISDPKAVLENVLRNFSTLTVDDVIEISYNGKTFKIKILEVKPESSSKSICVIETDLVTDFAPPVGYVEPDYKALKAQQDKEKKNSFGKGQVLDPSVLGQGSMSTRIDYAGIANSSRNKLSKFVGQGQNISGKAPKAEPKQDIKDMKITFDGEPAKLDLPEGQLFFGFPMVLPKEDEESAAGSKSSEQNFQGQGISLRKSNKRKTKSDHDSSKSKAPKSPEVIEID
T2 sequence (looked up) 2: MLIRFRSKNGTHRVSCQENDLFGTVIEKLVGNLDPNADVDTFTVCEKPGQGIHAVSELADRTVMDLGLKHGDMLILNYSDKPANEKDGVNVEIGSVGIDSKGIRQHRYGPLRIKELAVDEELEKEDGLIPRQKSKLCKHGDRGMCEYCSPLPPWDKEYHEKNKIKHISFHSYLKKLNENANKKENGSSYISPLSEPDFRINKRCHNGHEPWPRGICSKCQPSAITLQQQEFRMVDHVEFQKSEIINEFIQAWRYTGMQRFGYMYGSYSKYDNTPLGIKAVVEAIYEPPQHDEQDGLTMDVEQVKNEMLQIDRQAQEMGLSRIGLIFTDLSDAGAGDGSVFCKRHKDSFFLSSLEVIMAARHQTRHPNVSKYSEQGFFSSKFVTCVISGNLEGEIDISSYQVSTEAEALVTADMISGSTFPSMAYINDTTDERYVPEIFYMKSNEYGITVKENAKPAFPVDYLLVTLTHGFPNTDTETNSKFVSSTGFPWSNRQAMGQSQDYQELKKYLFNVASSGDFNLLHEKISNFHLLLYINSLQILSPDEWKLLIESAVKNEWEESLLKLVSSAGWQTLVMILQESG
The assay is described as follows: ATPase activity titration.

For assay [3], the target named is T3, Ufd1/Npl4 heterodimer (wild type) (UniProt P53044 1-361; P33755 1-580).
T3 sequence (looked up) 1: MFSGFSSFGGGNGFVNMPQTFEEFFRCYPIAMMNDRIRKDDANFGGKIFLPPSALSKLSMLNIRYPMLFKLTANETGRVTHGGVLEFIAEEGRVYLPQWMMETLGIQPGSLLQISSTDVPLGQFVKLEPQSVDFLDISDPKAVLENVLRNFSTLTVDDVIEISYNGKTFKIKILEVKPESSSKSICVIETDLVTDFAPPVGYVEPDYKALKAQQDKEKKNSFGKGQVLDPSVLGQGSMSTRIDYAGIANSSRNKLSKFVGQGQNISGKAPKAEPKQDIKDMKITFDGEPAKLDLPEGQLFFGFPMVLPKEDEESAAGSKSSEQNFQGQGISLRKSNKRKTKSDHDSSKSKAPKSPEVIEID
T3 sequence (looked up) 2: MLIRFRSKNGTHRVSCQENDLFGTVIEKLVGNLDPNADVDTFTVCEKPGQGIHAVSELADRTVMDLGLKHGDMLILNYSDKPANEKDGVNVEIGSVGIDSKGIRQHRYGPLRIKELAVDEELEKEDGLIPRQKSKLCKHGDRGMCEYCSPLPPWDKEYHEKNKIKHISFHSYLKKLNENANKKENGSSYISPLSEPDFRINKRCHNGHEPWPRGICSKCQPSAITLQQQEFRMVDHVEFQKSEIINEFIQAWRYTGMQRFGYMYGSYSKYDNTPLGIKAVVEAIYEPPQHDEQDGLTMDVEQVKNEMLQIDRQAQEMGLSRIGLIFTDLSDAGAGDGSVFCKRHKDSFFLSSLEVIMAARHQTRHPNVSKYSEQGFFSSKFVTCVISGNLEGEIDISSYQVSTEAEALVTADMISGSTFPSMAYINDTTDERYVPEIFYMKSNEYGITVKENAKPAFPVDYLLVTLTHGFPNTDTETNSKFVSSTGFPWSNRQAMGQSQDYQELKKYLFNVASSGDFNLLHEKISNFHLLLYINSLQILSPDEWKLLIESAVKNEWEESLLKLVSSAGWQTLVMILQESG
The assay can be described thus: ATPase activity titration.

B1: Ufd1 (wild type, purified without Npl4) (natural protein, UniProt P53044 1-361, looked up)
chain: MFSGFSSFGGGNGFVNMPQTFEEFFRCYPIAMMNDRIRKDDANFGGKIFLPPSALSKLSMLNIRYPMLFKLTANETGRVTHGGVLEFIAEEGRVYLPQWMMETLGIQPGSLLQISSTDVPLGQFVKLEPQSVDFLDISDPKAVLENVLRNFSTLTVDDVIEISYNGKTFKIKILEVKPESSSKSICVIETDLVTDFAPPVGYVEPDYKALKAQQDKEKKNSFGKGQVLDPSVLGQGSMSTRIDYAGIANSSRNKLSKFVGQGQNISGKAPKAEPKQDIKDMKITFDGEPAKLDLPEGQLFFGFPMVLPKEDEESAAGSKSSEQNFQGQGISLRKSNKRKTKSDHDSSKSKAPKSPEVIEID
For B1, the binding result in assay [1] is on record as “binds”.

B2: Ufd1^L55R (purified without Npl4) (natural protein, UniProt P53044 1-361, looked up)
chain: MFSGFSSFGGGNGFVNMPQTFEEFFRCYPIAMMNDRIRKDDANFGGKIFLPPSARSKLSMLNIRYPMLFKLTANETGRVTHGGVLEFIAEEGRVYLPQWMMETLGIQPGSLLQISSTDVPLGQFVKLEPQSVDFLDISDPKAVLENVLRNFSTLTVDDVIEISYNGKTFKIKILEVKPESSSKSICVIETDLVTDFAPPVGYVEPDYKALKAQQDKEKKNSFGKGQVLDPSVLGQGSMSTRIDYAGIANSSRNKLSKFVGQGQNISGKAPKAEPKQDIKDMKITFDGEPAKLDLPEGQLFFGFPMVLPKEDEESAAGSKSSEQNFQGQGISLRKSNKRKTKSDHDSSKSKAPKSPEVIEID
Take B2: the binding result in assay [1] is “binds”.

B3: Cdc48 (enzyme, yeast, UniProt P25694 1-835, looked up)
chain: MGEEHKPLLDASGVDPREEDKTATAILRRKKKDNMLLVDDAINDDNSVIAINSNTMDKLELFRGDTVLVKGKKRKDTVLIVLIDDELEDGACRINRVVRNNLRIRLGDLVTIHPCPDIKYATRISVLPIADTIEGITGNLFDVFLKPYFVEAYRPVRKGDHFVVRGGMRQVEFKVVDVEPEEYAVVAQDTIIHWEGEPINREDEENNMNEVGYDDIGGCRKQMAQIREMVELPLRHPQLFKAIGIKPPRGVLMYGPPGTGKTLMARAVANETGAFFFLINGPEVMSKMAGESESNLRKAFEEAEKNAPAIIFIDEIDSIAPKRDKTNGEVERRVVSQLLTLMDGMKARSNVVVIAATNRPNSIDPALRRFGRFDREVDIGIPDATGRLEVLRIHTKNMKLADDVDLEALAAETHGYVGADIASLCSEAAMQQIREKMDLIDLDEDEIDAEVLDSLGVTMDNFRFALGNSNPSALRETVVESVNVTWDDVGGLDEIKEELKETVEYPVLHPDQYTKFGLSPSKGVLFYGPPGTGKTLLAKAVATEVSANFISVKGPELLSMWYGESESNIRDIFDKARAAAPTVVFLDELDSIAKARGGSLGDAGGASDRVVNQLLTEMDGMNAKKNVFVIGATNRPDQIDPAILRPGRLDQLIYVPLPDENARLSILNAQLRKTPLEPGLELTAIAKATQGFSGADLLYIVQRAAKYAIKDSIEAHRQHEAEKEVKVEGEDVEMTDEGAKAEQEPEVDPVPYITKEHFAEAMKTAKRSVSDAELRRYEAYSQQMKASRGQFSNFNFNDAPLGTTATDNANSNNSAPSGAGAAFGSNAEEDDDLYS
Take B3: the dissociation constant Kd – broadly, a measure of binding affinity in units of concentration – in assay [2] was 500 nM; in assay [3] it was 1000 nM.
